As a reminder, the stoichiometry N is a count of units in the complex or per binding partner.

Common to all, as to settings: remark: other sources report otherwise
The target of test [1] is T1, human recombinant HSP60 (without mitochondrial signal sequence) (human), P10809. Briefly: transmission electron microscopy (uranyl acetate stain); 1 mM ATP; HSP60 (wild type or D398A) 0.1 μM alone or with HSP10 0.2 μM, or GroEL 0.1 μM with GroES 0.2 μM, buffer D, 25 °C, 10 min; more than 500 side views counted, three experiments; self-association: single ring (7) to double ring (14).

The target of test [2] is T1, human recombinant HSP60 (without …). Briefly: small angle X-ray scattering (SAXS); 1 mM ATP; 3.0 mg/mL HSP60 or GroEL with various concentrations of co-chaperone, buffer D, 25 °C; self-association: single ring (7) to double ring (14).
For test [3] the target is unchanged. Briefly: transmission electron microscopy (uranyl acetate stain); no nucleotide; HSP60 0.1 μM alone or with HSP10 0.2 μM, or GroEL 0.1 μM with GroES 0.2 μM, buffer D (10 mM MgCl2, 20 mM KCl, 1 mM DTT, 50 mM HEPES-KOH pH 7.4), 25 °C, 10 min.
The target is the same in test [4]. The test is described as follows: SEC; Superdex 200 10/300 GL, 0.41 μM HSP60 or GroEL, 0.1 M NaCl, 5% glycerol, 50 mM HEPES-KOH pH 7.4, no nucleotide; size from a calibration curve.
Test [5] has the same target. Briefly: transmission electron microscopy (uranyl acetate stain); 1 mM ADP; HSP60 0.1 μM alone or with HSP10 0.2 μM, buffer D, 25 °C, 10 min.

B1: human recombinant HSP60 (without mitochondrial signal sequence), P10809 27-573 (natural protein)
chain: AKDVKFGADARALMLQGVDLLADAVAVTMGPKGRTVIIEQSWGSPKVTKDGVTVAKSIDLKDKYKNIGAKLVQDVANNTNEEAGDGTTTATVLARSIAKEGFEKISKGANPVEIRRGVMLAVDAVIAELKKQSKPVTTPEEIAQVATISANGDKEIGNIISDAMKKVGRKGVITVKDGKTLNDELEIIEGMKFDRGYISPYFINTSKGQKCEFQDAYVLLSEKKISSIQSIVPALEIANAHRKPLVIIAEDVDGEALSTLVLNRLKVGLQVVAVKAPGFGDNRKNQLKDMAIATGGAVFGEEGLTLNLEDVQPHDLGKVGEVIVTKDDAMLLKGKGDKAQIEKRIQEIIEQLDVTTSEYEKEKLNERLAKLSDGVAVLKVGGTSDVEVNEKKDRVTDALNATRAAVEEGIVLGGGCALLRCIPALDSLTPANEDQKIGIEIIKRTLKIPAMTIAKNAGVEGSLIVEKIMQSSSEVGYDAMAGDFVNMVEKGIIDPTKVVRTALLDAAGVASLLTTAEVVVTEIPKEEKDPGMGAMGGMGGGMGGGMF
As for B1, in test [1], the percent of HSP60-containing complexes with the double-ring structure (with HSP10 and ATP) was found to be 80%; the percent of HSP60 in double rings, football-type and bullet-type (with HSP10 and ATP) was found to be 70%; the percent of side views that are HSP60 (7), single ring alone (with HSP10 and ATP) is 10%; the percent of side views that are HSP60 (14), double ring alone (with HSP10 and ATP) amounted to 2%. Moreover, in test [2], the fraction of double-ring HSP60 (curve fitting, HSP60+ATP) stood at 0.14; the fraction of single-ring HSP60 (curve fitting, HSP60+ATP) was found to be 0.86; the fraction of single-ring HSP60 without HSP10 (curve fitting, HSP10 and ATP present) amounted to 0.09; the percent of HSP60 in double rings (from I(0)/C, ATP, no HSP10) was 50%. The stoichiometry N in test [3] came out at 7. In addition, in test [4], the stoichiometry N came out at 7.3 subunits. Moreover, the stoichiometry N in test [5] came out at 7.

(Values after article PMC5855711.)
